B1: KRAS_G12S epitope peptide … (peptide)
peptide: VVGASGVGK
B2: PIK3CA_E542K epitope peptide … (peptide)
peptide: KAISTRDPLSK
B3: KRAS_G13D epitope peptide … (peptide)
peptide: VVVGAGDVGK
B4: KRAS_G13D epitope peptide … (peptide)
peptide: VVGAGDVGK
B5: KRAS_G12C epitope peptide … (peptide)
peptide: VVGACGVGK
B6: KRAS_G12A epitope peptide … (peptide)
peptide: VVGAAGVGK
B7: TP53_G245S epitope peptide … (peptide)
peptide: SSCMGSMNR
B8: PIK3CA_E542K epitope peptide … (peptide)
peptide: ISTRDPLSK

What follows are binders tested against HLA-A*11:01 on TAP2-KO HLA class I monoallelic TISI cells (human | human (endogenous in TISI)) (assay: flow cytometry on cells).
B1 was tested, and the ΔHLA (% control) was 219%. B2 showed a ΔHLA (% control) of 127%. With B3 the ΔHLA (% control) was 195%. B4 showed a ΔHLA (% control) of 181%. B5 showed a ΔHLA (% control) of 234%. Binder B6 has a ΔHLA (% control) of 218%. In the case of B7, the ΔHLA (% control) is reported as 107%. In the case of B8, the ΔHLA (% control) is reported as 124%.
